The values that follow come from PMC12488921.

“And” between values parts separate entries of the source, which are not always exact repeats. Equal entries are not always repeated.

Assay [1] concerns the target Human DNAJB6b (human) (UniProt O75190). As to the kind of experiment: mass photometry; JB6 equilibrated at different concentrations (1 to 100 μM), 20 mM NaP, 0.2 mM EDTA, pH 8.0, room temperature; samples above 200 nM diluted to 200 nM less than a minute before a 60 s measurement; also 5 μM JB6 with 0-1.25 M NaCl.
Assay [2] has the same target. As to the kind of experiment: mass photometry; dissociation kinetics: 34 μM non-labeled JB6 diluted to 50 nM at time zero, 22 and 37 °C; total micelle mass (N > 2) in 60 s of data collection against time.

Human DNAJB6b, O75190-2 1-241 (natural protein; other documents disagree on this pair), sequence (O75190 other isoform, or with tags, fused parts or gaps): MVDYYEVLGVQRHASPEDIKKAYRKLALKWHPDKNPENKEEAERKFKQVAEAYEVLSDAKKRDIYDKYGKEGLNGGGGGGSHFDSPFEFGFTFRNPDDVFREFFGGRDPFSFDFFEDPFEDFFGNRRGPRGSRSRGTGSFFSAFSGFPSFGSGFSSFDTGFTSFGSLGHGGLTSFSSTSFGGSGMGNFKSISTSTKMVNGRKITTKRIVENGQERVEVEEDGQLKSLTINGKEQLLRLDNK

On to “Human DNAJB6b, O75190-2 1-241 (natural protein; other documents disagree on this pair)”, for which the stoichiometry N in assay [1] was 20 and 40. The same substance displayed a time scale of micelle dissociation at 37 °C in assay [2] of 20 min.
